Numbering of substitutions follows the chain as printed. Numbers in names are those of the source.

The record followed here is patent publication US20230235090A1 (HARBOUR BIOMED US, published 2023).

The target in experiment [1] is T1, cynomolgus monkey 4-1BB (cynomolgus monkey).
T1 construct: whole, on cells; also called CHO-K1-cyno 4-1BB; CHO-K1/cyno4-1BB
Put plainly: FACS, CHO-K1/cyno 4-1BB cells [G]. Background: In flow cytometry, cells or beads pass a laser one at a time.
Method: (§1) Antibody binding experiments at the cellular level were conducted using a CHO-K1 cell strain overexpressing human 4-1BB (CHO-K1-hu 4-1BB, Genescript) and a CHO-K1 cell strain overexpressing cynomolgus monkey 4-1BB (CHO-K1-cyno 4-1BB, Genescript). Briefly, the CHO-K1-hu 4-1BB and CHO-K1-cyno 4-1BB cells were digested and resuspended in DMEM complete medium, and the cell density was adjusted to 1×10⁶ cells/mL. […] The cells were incubated at 4° C. for 1 h away from light. Thereafter, the cells in each well were rinsed twice with 100 μL of pre-cooled PBS, and centrifuged at 500 g at 4° C. for 5 min, and then the supernatant was discarded. […] The plate was incubated away from light at 4° C. for 30 min. The cells in each well were rinsed twice with 100 μL of pre-cooled PBS, and centrifuged at 500 g at 4° C. for 5 min, and then the supernatant was discarded. Finally, the cells in each well were resuspended in 200 μL of pre-cooled PBS, and the fluorescence signal values were read using a BD FACS CANTOII.

The target of experiment [2] is T2, human 4-1BB (human, UniProt Q07011 24-255).
T2 construct: whole, on cells; also called CD137; TNFRSF9
Put plainly: FACS, CHO-K1/h4-1BB cells [L].
Method: Antibody binding experiments at the cellular level were conducted using a CHO-K1 cell strain overexpressing human 4-1BB (CHO-K1/hu 4-1BB, Genscript, #M00538) and a CHO-K1 cell strain overexpressing cynomolgus monkey 4-1BB (CHO-K1/cyno 4-1BB, Genscript, #M00569). Briefly, the CHO-K1-hu 4-1BB and CHO-K1/cyno 4-1BB cells were digested, resuspended in F12K complete medium, and washed once with PBS. The cell density was adjusted to 1×10⁶ cells/mL with PBS. […] The cells were incubated at 4° C. for 1 h away from light. Thereafter, the cells in each well were rinsed twice with 100 μL of pre-cooled PBS, and centrifuged at 500 g at 4° C. for 5 min, and then the supernatant was discarded. […] The plate was incubated away from light at 4° C. for 30 min. The cells in each well were rinsed twice with 100 μL of pre-cooled PBS, and centrifuged at 500 g at 4° C. for 5 min, and then the supernatant was discarded. Finally, the cells in each well were resuspended in 200 μL of pre-cooled PBS, and the fluorescence signal values were read using a BD FACS CANTOII or an ACEA NovoCyte flow cytometer.

The target of experiment [3] is T2, human 4-1BB. Put plainly: FACS, CHO-K1/h4-1BB cells [A].
Method: (§2) Antibody binding experiments at the cellular level were conducted using a CHO-K1 cell strain overexpressing human 4-1BB (CHO-K1/h4-1BB, Gensript, #M00538), a CHO-K1 cell strain expressing cynomolgus monkey 4-1BB (CHO-K1/cyno4-1BB, Genscript, #M00569) and a CHO-K1 cell strain overexpressing mouse 4-1BB (CHO-K1/m4-1BB, Genscript, #M00568). Briefly, the CHO-K1/h4-1BB cells, CHO-K1/cyno 4-1BB cells and CHO-K1/m 4-1BB cells were digested and resuspended with PBS containing 2% FBS. The cell density was adjusted to 1×10⁶ cells/mL. […] The cells were incubated at 4° C. for 2 h away from light. Thereafter, the cells in each well were rinsed twice with 100 μL of a pre-cooled FACS buffer, PBS containing 2% FBS, and centrifuged at 500 g at 4° C. for 5 min, and then the supernatant was discarded. […] The plate was incubated away from light at 4° C. for 1 h. The cells in each well were rinsed twice with 100 μL of pre-cooled FACS buffer, and centrifuged at 500 g at 4° C. for 5 min, and then the supernatant was discarded. Finally, the cells in each well were resuspended in 200 μL of pre-cooled FACS buffer, and the fluorescence signal values were read using an ACEA Novocyte3000 flow cytometer.
The target in experiment [4] is T1, cynomolgus monkey 4-1BB. Nature of the experiment: FACS, CHO-K1/cyno-4-1BB cells [B].
Method: as §2
Experiment [5] addresses T2, human 4-1BB. Put plainly: FACS, CHO-K1/hu 4-1BB cells [H].
Method: as §1
For experiment [6], the target named is T3, human B7-H4 (human, UniProt Q7Z7D3 25-282).
T3 construct: whole, on cells; also called VTCN1; SK-BR-3 cell line highly expressing B7-H4
T3 sequence (looked up): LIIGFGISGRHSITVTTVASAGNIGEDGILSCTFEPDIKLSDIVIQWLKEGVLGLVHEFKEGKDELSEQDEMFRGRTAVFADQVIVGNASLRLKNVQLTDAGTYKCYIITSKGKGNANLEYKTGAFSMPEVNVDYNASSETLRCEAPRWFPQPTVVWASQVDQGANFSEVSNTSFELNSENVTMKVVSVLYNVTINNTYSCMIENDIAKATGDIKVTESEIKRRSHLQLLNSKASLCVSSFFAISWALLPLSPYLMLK
Put plainly: FACS, MDA-MB-468 cells [A].

The target of experiment [7] is T3, human B7-H4. Nature of the experiment: FACS, SK-BR-3 cells [A].
Method: (§3) This example is intended to investigate the in vitro binding activity of anti-human B7-H4 H2L2 monoclonal antibody to human/cynomolgus monkey/mouse B7-H4. Antibody binding experiments at the cellular level were conducted using a CHO-K1 cell strain overexpressing cynomolgus monkey B7-H4 (CHO-K1/cyno B7-H4, prepared in-house by Harbour Biomed), a CHO-K1 cell strain overexpressing mouse B7-H4 (CHO-K1/m B7-H4, prepared in-house by Harbour Biomed) and an SK-BR-3 cell line highly expressing human B7-H4 (ATCC® HTB-30). Briefly, the CHO-K1/cyno B7-H4 cells, CHO-K1/m B7-H4 cells or SK-BR-3 cells were digested and resuspended with PBS containing 2% BSA. The cell density was adjusted to 1×10⁶ cells/mL. […] The cells were incubated at 4° C. for 2 h away from light. Thereafter, the cells in each well were rinsed twice with 100 μL of pre-cooled PBS containing 2% BSA, and centrifuged at 500 g at 4° C. for 5 min, and then the supernatant was discarded. […] The plate was incubated away from light at 4° C. for 1 h. The cells in each well were rinsed twice with 100 μL of pre-cooled PBS containing 2% BSA, and centrifuged at 500 g at 4° C. for 5 min, and then the supernatant was discarded. Finally, the cells in each well were resuspended in 200 μL of pre-cooled PBS containing 2% BSA, and the fluorescence signal values were read using an ACEA Novocyte3000 flow cytometer.
The target of a further experiment is T4, mouse B7-H4 (mouse, UniProt Q7TSP5 25-257).
T4 construct: whole, on cells; also called CHO-K1/m B7-H4; CHO-K1/mB7-H4
T4 sequence (looked up): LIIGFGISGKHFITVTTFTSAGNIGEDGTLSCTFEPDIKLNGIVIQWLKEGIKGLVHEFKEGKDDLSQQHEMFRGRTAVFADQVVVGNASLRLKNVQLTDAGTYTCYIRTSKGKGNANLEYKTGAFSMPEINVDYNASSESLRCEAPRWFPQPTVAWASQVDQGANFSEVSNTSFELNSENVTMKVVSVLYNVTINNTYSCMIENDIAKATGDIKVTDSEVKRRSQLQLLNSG
Put plainly: FACS, CHO-K1/m B7H4 cells [C].

The next experiment addresses T5, cynomolgus monkey B7-H4 (cynomolgus monkey, UniProt A0A2K5U6P5 25-282).
T5 construct: whole, on cells; also called CHO-K1/cyno B7-H4; CHO-K1/cynoB7H4
T5 sequence: T3 sequence (looked up) with L53I, F242L, S252A
Put plainly: FACS, CHO-K1/cyno B7H4 cells [B].

Experiment [8] concerns the target T3, human B7-H4. Put plainly: FACS, SKBR3 cells [A].
Experiment [9] addresses T1, cynomolgus monkey 4-1BB. Put plainly: FACS, CHO-K1/cyno 4-1BB cells [H].
Method: as §1
Experiment [10] has as its target T2, human 4-1BB. Put plainly: FACS, CHO-K1/hu 4-1BB cells [I].
Method: (§4) This example is intended to investigate the in vitro binding activity of anti-human 4-1BB HCAb and H2L2 monoclonal antibodies to human and cynomolgus monkey 4-1BB. Antibody binding experiments at the cellular level were conducted using a CHO-K1 cell strain overexpressing human 4-1BB (CHO-K1-hu 4-1BB, Genescript) and a CHO-K1 cell strain overexpressing cynomolgus monkey 4-1BB (CHO-K1-cyno 4-1BB, Genescript). Briefly, the CHO-K1-hu 4-1BB and CHO-K1-cyno 4-1BB cells were digested and resuspended in DMEM complete medium, and the cell density was adjusted to 1×10⁶ cells/mL. […] The cells were incubated at 4° C. for 1 h away from light. Thereafter, the cells in each well were rinsed twice with 100 μL of pre-cooled PBS, and centrifuged at 500 g at 4° C. for 5 min, and then the supernatant was discarded. […] The plate was incubated away from light at 4° C. for 30 min. The cells in each well were rinsed twice with 100 μL of pre-cooled PBS, and centrifuged at 500 g at 4° C. for 5 min, and then the supernatant was discarded. Finally, the cells in each well were resuspended in 200 μL of pre-cooled PBS, and the fluorescence signal values were read using a BD FACS CANTOII.
The target of experiment [11] is T1, cynomolgus monkey 4-1BB. Nature of the experiment: FACS, CHO-K1/cyno 4-1BB cells [F].
Method: as §4
Experiment [12] concerns the target T2, human 4-1BB. Put plainly: FACS, CHO-K1/hu 4-1BB cells [G].
Method: as §4
Experiment [13] concerns the target T2, human 4-1BB. Nature of the experiment: FACS on CHO-K1-hu 4-1BB cells.

T2 sequence (Q07011 24-255): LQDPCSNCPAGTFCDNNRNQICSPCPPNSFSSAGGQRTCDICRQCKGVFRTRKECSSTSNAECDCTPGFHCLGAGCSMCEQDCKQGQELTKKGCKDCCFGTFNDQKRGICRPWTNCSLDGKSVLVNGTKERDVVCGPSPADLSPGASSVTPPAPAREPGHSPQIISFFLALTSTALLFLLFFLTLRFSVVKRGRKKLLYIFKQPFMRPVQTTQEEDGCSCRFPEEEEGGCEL
Method for cynomolgus monkey B7-H4: as §3
Method for mouse B7-H4: as §3

B1: PR004469 (antibody, human IgG1, V domains shown)
VH: EVQLLESGGGLVQPGGSLRLSCAASGFTFSNYAMSWFRQPPETGLKWVSSIDASGGDTYYADSVKGRFTISRDNSKNTLYLQMNSLRAEDTAVYYCAKEGSHGTDDSHYDVDVWGQGTTVTVSS
notes: anti-4-1BB HCAb, human IgG1 Fc; also called PTM variant of PR001838 (G53A)
The EC50 is the midpoint of the concentration-response curve. With B1, the EC50 with cynomolgus monkey 4-1BB [1] was 0.568 nM; with human 4-1BB [2] it was 17 nM; in the experiment with human 4-1BB [3], 18 nM; with cynomolgus monkey 4-1BB [4], 25.4 nM; with human 4-1BB [5], 1.29 nM. For the same molecule, the “Maximum MFI” value with human 4-1BB [5] was 109000 MFI.

B2: control antibody 1 (PR000157) (antibody, V domains shown)
VH: EVQLVQSGAEVKKPGASVKVSCKASGYTFTSYWIGWVRQAPGQGLEWIGDIYPGGGYTNYNEKFKGRVTITRDTSTSTAYLELSSLRSEDTAVYYCARLAGSSYRGAMDSWGQGTLVTVSS
VL: DIQMTQSPSSLSASVGDRVTITCKASQGFNKYVAWYQQKPGKAPKLLIYYTSTLQPGVPSRFSGSGSGRDYTLTISSLQPEDFATYYCLQYGDLLYAFGQGTKVEIKR
notes: also called Positive control 1; 1D11.v1.9varC2
As a reminder, the EC50 (read off the curve) is the midpoint of the concentration-response curve. Turning to B2, the concentration for a half-maximal effect (EC50 (read off the curve)) with human B7-H4 [6] is about 6 nM; in the experiment with human B7-H4 [8] it was about 4 nM. Further, the results for the EC50 with human B7-H4 [7], with mouse B7-H4 and with cynomolgus monkey B7-H4 were 1.2 nM, 1.73 nM and 2.1 nM, respectively. Moreover, the “Maximum MFI” value with human B7-H4 [7] turned out to be 266000 MFI; with mouse B7-H4, 1.75e+06 MFI; in the experiment with cynomolgus monkey B7-H4, 1.99e+06 MFI.

B3: PR000448 (antibody, human IgG4 S228P, kappa, V domains shown)
VH: QVQLQQWGAGLLKPSETLSLTCAVYGGSFSGYYWSWIRQPPGKGLEWIGEIQHSGSTDSNPSLKGRVTFSVDTSKNQFSLKLNSVTAADTAVYYCARLTGPFDYWGQGTLVTVSS
VL: EIVMTQSPATLSVSPGERATLSCRASQSISSILAWYQQKPGQAPRLLIYGASTRATGIPARFSGSGSGTEFTLTISSLQSEDFAVYYCQQYYNWPLTFGGGTKVEIKR
notes: anti-4-1BB H2L2 recombinant fully human IgG antibody, human IgG1 / kappa
Take B3: the figures for the EC50 with cynomolgus monkey 4-1BB [9] and in the experiment with human 4-1BB [10] were 1.06 nM and 0.947 nM, respectively.

B4: PR001842 (antibody, human IgG1, V domains shown)
VH: EVQLLESGGGLVQPGGSLRLSCAASGFTFSSYAMSWGRQAPGKGLEWVSAISGSGGSTYYADSVKGRFTISRDNSKNTLYLHMNSLRAEDTAVYYCAKEKVATTGDYYYDMDVWGQGTTVTVSS
notes: anti-4-1BB HCAb, human IgG1 Fc
On to B4, for which the EC50 with cynomolgus monkey 4-1BB [11] was 2.29 nM; in the experiment with human 4-1BB [12], 0.537 nM. Moreover, the “Maximum MFI” value in the experiment with cynomolgus monkey 4-1BB [11] worked out at 9660 MFI.

B5: PR007381 (antibody, human IgG1, V domains shown)
VH: B1 VH with F37V, P40A, E42G, T43K, K46E
notes: anti-4-1BB HCAb, human IgG1 Fc; also called germline variant of PR004469
B5: the binding result in the experiment with human 4-1BB [13] is “binds”.
